Target: T1, tryptophan 2-C-methyltransferase (TsrM) from Streptomyces laurentii (Streptomyces laurentii, UniProt C0JRZ9 1-599)
T1 sequence (looked up): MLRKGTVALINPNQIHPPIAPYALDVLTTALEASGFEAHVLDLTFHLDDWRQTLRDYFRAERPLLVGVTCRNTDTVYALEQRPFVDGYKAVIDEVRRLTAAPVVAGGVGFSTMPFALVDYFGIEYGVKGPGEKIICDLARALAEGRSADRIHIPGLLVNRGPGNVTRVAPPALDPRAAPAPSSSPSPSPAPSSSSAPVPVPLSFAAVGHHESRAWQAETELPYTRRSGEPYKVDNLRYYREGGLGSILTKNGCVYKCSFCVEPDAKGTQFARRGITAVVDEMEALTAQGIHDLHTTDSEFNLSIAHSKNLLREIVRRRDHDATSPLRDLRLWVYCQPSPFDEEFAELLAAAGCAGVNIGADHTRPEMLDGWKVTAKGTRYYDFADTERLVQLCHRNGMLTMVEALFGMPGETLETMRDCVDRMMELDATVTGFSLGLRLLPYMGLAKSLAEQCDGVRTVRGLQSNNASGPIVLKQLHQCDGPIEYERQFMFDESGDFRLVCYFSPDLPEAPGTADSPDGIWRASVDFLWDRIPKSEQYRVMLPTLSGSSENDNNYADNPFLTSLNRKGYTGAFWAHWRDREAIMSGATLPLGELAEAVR
Test: BLI

B1: Streptomyces cattleya [4Fe-4S] ferredoxin Fdx1 (natural protein, UniProt F8K3M7 1-106, looked up)
chain: MTYVIAQPCVDVKDKACIEECPVDCIYEGQRSLYIHPDECVDCGACEPVCPVEAIFYEDDTPEEWKDYYKANVEFFDELGSPGGASKLGLIERDHPFIAALPPQNG
modifications: biotinylated through incubation with 1 equivalent of NHS-PEG4-Biotin
In the case of B1, the Kd is reported as 40 µM.

— article doi:10.1101/2021.02.02.429153 (bioRxiv, 2021)
